In patent US7026443:
Where two headings read alike, the source gives them in different places.

How the values were obtained:
[1] = biological target: HLA-A*0301 (human)
[2] = biological target: HLA-A*1101 (human); details: for binding affinity ratio relative to standard peptide (A*1101): scale: ratio

## GLSFTDLVR (modifications not checked) [HPV18 E1 223 …]
[1]
  binding affinity ratio (IC50 of standard peptide / IC50 of test peptide): 0.0009

## NSNAAAFLK (modifications not checked) [HPV33 E1 379 peptide … (SEQ ID NO: 36047)]
[1]
  relative binding ratio (IC50 of standard peptide / IC50 of test peptide): 0.0057

## FLKSNSQAK (modifications not checked) [HPV31 E1 372 … (A03 motif peptide)]
[1]
  relative binding ratio (IC50 of standard peptide / IC50 of test peptide) (ratio to standard peptide): 0.0013

## TTLEQQYNK (modifications not checked) [… (HPV16 E6, position 93)]
[1]
  relative binding ratio (IC50 of standard peptide / IC50 of test peptide) (ratio to standard peptide): 0.01

## CTELQTTIH (modifications not checked) [HPV16 E6 position 23 peptide …]
[1]
  binding affinity ratio (IC50 of the standard peptide / IC50 of the test peptide): 0.0002

## DIILECVYCK (modifications not checked) [… (HPV16 E6, position 32, 10 amino acids)]
[2]
  binding affinity ratio (IC50 of standard peptide / IC50 of test peptide) (ratio to standard peptide): 0.021

## HDIILECVY (modifications not checked) [… (HPV16 E6, position 31)]
[1]
  relative binding ratio (IC50 of standard peptide / IC50 of test peptide) (ratio to standard peptide): 0.0002

## FLKSNSQAK (modifications not checked) [HPV33 E1 385 peptide … (SEQ ID NO: 35888)]
[1]
  relative binding ratio (IC50 of standard peptide / IC50 of test peptide): 0.0013

## KISEYRHYCY (modifications not checked) [… (HPV16 E6, position 79)]
[1]
  relative binding ratio (IC50 of standard peptide / IC50 of test peptide) (ratio to standard peptide): 0.0043

## FMSFLTALK (modifications not checked) [HPV16 E1 453 …]
[2]
  relative binding ratio (IC50 of standard peptide / IC50 of test peptide): 0.21

## LVRNFKSDK (modifications not checked) [HPV45 E1 215 peptide … (SEQ ID NO: 43696)]
[2]
  relative binding ratio (IC50 of standard peptide / IC50 of test peptide): 0.0002

## TAAALYWYK (modifications not checked) [HPV16 E1 315 …]
[1]
  binding affinity ratio (IC50 of standard peptide / IC50 of test peptide): 0.78

## LIRCINCQK (modifications not checked) [… (HPV16 E6, position 107)]
[1]
  relative binding ratio (IC50 of standard peptide / IC50 of test peptide) (ratio to standard peptide): 0.0025

## CVYCKQQLLR (modifications not checked) [… (HPV16 E6, position 37, 10 amino acids)]
[2]
  binding affinity ratio (IC50 of standard peptide / IC50 of test peptide) (ratio to standard peptide): 0.0005

## QMSMSQWIK (modifications not checked) [… (HPV16 E1, position 419, 9 amino acids)]
[2]
  binding affinity ratio (IC50 of the standard peptide / IC50 of the test peptide): 0.026

## VFEFAFKDLF (modifications not checked) [HPV18 E6 peptide … (position 44, 10 amino acids)]
[1]
  relative binding ratio (IC50 of standard peptide / IC50 of test peptide): 0.0001

## DCATMCRHYK (modifications not checked) [HPV16 E1 peptide … (position 404, 10 amino acids)]
[1]
  relative binding ratio (IC50 of standard peptide / IC50 of test peptide) (ratio to standard peptide): 0.0044

## CTELQTTIH (modifications not checked) [… (HPV16 E6, position 23, 9 amino acids)]
[2]
  binding affinity ratio (IC50 of standard peptide / IC50 of test peptide) (ratio to standard peptide): 0.0001

## LVRNFKSDK (modifications not checked) [HPV45 E1 215-223 peptide … (SEQ ID NO: 37448)]
[1]
  relative binding ratio (IC50 of the standard peptide / IC50 of the test peptide): 0.0005

## LVRNFKSDK (modifications not checked) [… (HPV18 E1, position 229, 9 amino acids)]
[1]
  binding affinity ratio (IC50 of standard peptide / IC50 of test peptide): 0.0005

## SMSQWIKYR (modifications not checked) [… (HPV16 E1, position 421, 9 amino acids)]
[2]
  binding affinity ratio (IC50 of the standard peptide / IC50 of the test peptide): 0.028

## MLIQPPKLR (modifications not checked) [… (HPV18 E1, position 312, 9 amino acids)]
[1]
  binding affinity ratio (IC50 of standard peptide / IC50 of test peptide): 0.0005

## TAAALYWYK (modifications not checked) [… (HPV16 E1, position 315, 9 amino acids)]
[2]
  binding affinity ratio (IC50 of the standard peptide / IC50 of the test peptide): 20

## NSNASAFLK (modifications not checked) [HPV16 E1 386 …]
[2]
  binding affinity ratio (IC50 of standard peptide / IC50 of test peptide) (ratio to standard peptide): 0.011

## DCATMCRHY (modifications not checked) [HPV16 E1 404 …]
[2]
  relative binding ratio (IC50 of standard peptide / IC50 of test peptide): 0.0001

## NSNAAAFLK (modifications not checked) [HPV45 E1 peptide … (position 379, 9 amino acids)]
[1]
  relative binding ratio (IC50 of standard peptide / IC50 of test peptide): 0.0057

## FITFLGALK (modifications not checked) [HPV18 E1 460 …]
[1]
  binding affinity ratio (IC50 of standard peptide / IC50 of test peptide): 0.032

## SVAALYWYR (modifications not checked) [HPV45 E1 308 peptide … (SEQ ID NO: 43764)]
[2]
  binding affinity ratio relative to standard peptide (A*1101): 8.8

## NMSQWIRFR (modifications not checked) [… (HPV18 E1, position 428, 9 amino acids)]
[1]
  binding affinity ratio (IC50 of standard peptide / IC50 of test peptide): 0.054

## QMNMSQWIR (modifications not checked) [HPV18 E1 426-434 peptide …]
[1]
  binding affinity ratio relative to standard peptide (IC50 standard / IC50 test): 0.0011

## VVYRDSIPH (modifications not checked) [HPV18 E6 peptide … (position 54, 9 amino acids)]
[1]
  relative binding ratio (IC50 of standard peptide / IC50 of test peptide): 0.12

## CATMCKHYR (modifications not checked) [HPV18 E1 peptide … (position 412, 9 amino acids)]
[1]
  binding affinity ratio (IC50 of standard peptide / IC50 of test peptide): 0.0012

## MLIQPPKLR (modifications not checked) [HPV31 E1 285 … (SEQ ID NO: 41814)]
[2]
  relative binding ratio (IC50 of standard peptide / IC50 of test peptide): 0.0014

## SVAALYWYR (modifications not checked) [HPV18 E1 322-330 peptide …]
[1]
  binding affinity ratio relative to standard peptide (IC50 standard / IC50 test): 2.9

## SMSQWIKYR (modifications not checked) [HPV16 E1 421 …]
[1]
  binding affinity ratio (IC50 of standard peptide / IC50 of test peptide): 0.69

## IILECVYCK (modifications not checked) [… (HPV16 E6, position 33)]
[1]
  relative binding ratio (IC50 of standard peptide / IC50 of test peptide) (ratio to standard peptide): 0.0016

## ALFTAQEAK (modifications not checked) [HPV16 E1 69 …]
[2]
  relative binding ratio (IC50 of standard peptide / IC50 of test peptide): 0.4

## CVYCKQQLLR (modifications not checked) [HPV16 E6 position 37 peptide …]
[1]
  binding affinity ratio (IC50 of the standard peptide / IC50 of the test peptide): 0.0001

## KFYSKISEY (modifications not checked)
[1]; remark: other sources report otherwise
  relative binding ratio (IC50 of standard peptide / IC50 of test peptide) (ratio to standard peptide): 0.0015

## DIILECVYCK (modifications not checked) [HPV16 E6 position 32 peptide …]
[1]
  binding affinity ratio (IC50 of the standard peptide / IC50 of the test peptide): 0.0065

## NSNAAAFLK (modifications not checked) [… (HPV18 E1, position 393, 9 amino acids)]
[1]
  binding affinity ratio (IC50 of standard peptide / IC50 of test peptide): 0.0057

## GTTLEQQYNK (modifications not checked) [HPV16 E6 position 92 peptide …]
[1]
  binding affinity ratio (IC50 of the standard peptide / IC50 of the test peptide): 0.0002

## ALLRYKCGK (modifications not checked) [HPV45 E1 270 … (SEQ ID NO: 37205)]
[1]
  relative binding ratio (IC50 of standard peptide / IC50 of test peptide): 0.09

## CATMCRHYK (modifications not checked) [HPV16 E1 405 …]
[2]
  relative binding ratio (IC50 of standard peptide / IC50 of test peptide): 0.0098

## LLIRCINCQK (modifications not checked) [… (HPV16 E6, position 106)]
[1]
  relative binding ratio (IC50 of standard peptide / IC50 of test peptide) (ratio to standard peptide): 0.021

## RFHNIAGHY (modifications not checked) [HPV18 E6 peptide … (position 126, 9 amino acids)]
[1]
  relative binding ratio (IC50 of standard peptide / IC50 of test peptide): 0.0005

## ALLRYKCGK (modifications not checked) [HPV18 E1 peptide … (position 284, 9 amino acids)]
[1]
  binding affinity ratio (IC50 of standard peptide / IC50 of test peptide): 0.09

## NSNAAAFLK (modifications not checked) [HPV45 E1 379 peptide … (SEQ ID NO: 43719)]
[2]
  binding affinity ratio relative to standard peptide (A*1101): 0.37

## NSNAAAFLK (modifications not checked) [HPV33 E1 379 peptide … (A11 motif peptide, 9 amino acids)]
[2]
  relative binding ratio (IC50 of standard peptide / IC50 of test peptide): 0.37

## MLIQPPKLR (modifications not checked) [HPV31 E1 peptide … (position 285, 9 amino acids)]
[1]
  relative binding ratio (IC50 of standard peptide / IC50 of test peptide) (ratio to standard peptide): 0.0005

## ATMCRHYKR (modifications not checked) [HPV16 E1 406 …]
[2]
  relative binding ratio (IC50 of standard peptide / IC50 of test peptide): 1.5

## SVAALYWYR (modifications not checked) [HPV45 E1 308 peptide … (SEQ ID NO: 37559)]
[1]
  relative binding ratio (IC50 of standard peptide / IC50 of test peptide): 2.9

## EVYDFAFR (modifications not checked) [EVYDFAFR (HPV16 E6, position 48, 8 amino acids)]
[2]
  binding affinity ratio (IC50 of standard peptide / IC50 of test peptide) (ratio to standard peptide): 0.0025

## GLSFTDLVR (modifications not checked) [HPV45 E1 peptide … (position 209, 9 amino acids)]
[1]
  relative binding ratio (IC50 of standard peptide / IC50 of test peptide): 0.0009

## TGLYNLLIR (modifications not checked) [HPV18 E6 peptide … (position 96, 9 amino acids)]
[1]
  relative binding ratio (IC50 of standard peptide / IC50 of test peptide): 0.0005

## KFYSKISEYR (modifications not checked)
[1]
  relative binding ratio (IC50 of standard peptide / IC50 of test peptide) (ratio to standard peptide): 0.0067

## IAQLKDLLK (modifications not checked) [HPV18 E1 198 …]
[1]
  binding affinity ratio (IC50 of standard peptide / IC50 of test peptide): 0.0003

## RFHNIAGHYR (modifications not checked) [HPV18 E6 peptide … (position 126, 10 amino acids)]
[1]
  relative binding ratio (IC50 of standard peptide / IC50 of test peptide): 0.0023

## GLSFTDLVR (modifications not checked) [HPV45 E1 209 … (SEQ ID NO: 43622)]
[2]
  relative binding ratio (IC50 of standard peptide / IC50 of test peptide): 0.0025
